Assay results: the Immune Epitope Database (IEDB)

Experiments:
HLA-A*26:01 = test: IEDB peptide-MHC binding, purified MHC/competitive/radioactivity; filed as Kd, often an IC50 or EC50 that approximates it; ≥ and ≤ were set here for values at or beyond the usual limits of such assays
HLA-A*01:01 = test: as above
HLA-A*29:02 = test: as above
HLA-A*30:01 = test: as above; conditions: source organism: Mammarenavirus guanaritoense
HLA-A*32:01 = test: as above; conditions: source organism: Mammarenavirus guanaritoense
HLA-A*30:02 = test: as above
HLA-A*02:01 [1] = test: as above
HLA-B*51:01 = test: as above
HLA-A*23:01 = test: as above
HLA-A*24:02 = test: as above
HLA-B*40:01 = test: as above; conditions: source organism: Dengue virus 1 Brazil/97-11/1997
HLA-B*44:02 = test: as above; conditions: source organism: Dengue virus 1 Brazil/97-11/1997
HLA-B*44:03 = test: as above; conditions: source organism: Dengue virus 1 Brazil/97-11/1997
HLA-B*58:01 = test: IEDB peptide-MHC binding, purified MHC/direct/fluorescence; filed as Kd, often an IC50 or EC50 that approximates it; ≥ and ≤ were set here for values at or beyond the usual limits of such assays; conditions: source organism: Entamoeba histolytica HM-1:IMSS
HLA-B*57:01 = test: as above; conditions: source organism: Entamoeba histolytica HM-1:IMSS
HLA-A*02:01 [2] = test: IEDB peptide-MHC binding, purified MHC/competitive/fluorescence; filed as Kd, often an IC50 or EC50 that approximates it; ≥ and ≤ were set here for values at or beyond the usual limits of such assays; conditions: source organism: Plasmodium falciparum
HLA-B*53:01 = test: IEDB peptide-MHC binding, purified MHC/competitive/radioactivity; filed as Kd, often an IC50 or EC50 that approximates it; ≥ and ≤ were set here for values at or beyond the usual limits of such assays; conditions: source organism: Dengue virus 2 Jamaica/1409/1983
[3] = source organism: Mammarenavirus guanaritoense
[4] = source organism: Mammarenavirus brazilense
[5] = source organism: SARS coronavirus Tor2
[6] = source organism: Lymphocytic choriomeningitis virus (strain Armstrong)

LFDVIPVSY
Kd (HLA-A*26:01; [3]): ≥ 51.9 µM
Kd (HLA-A*01:01; [3]): 0.613 µM
Kd (HLA-A*29:02; [3]): 0.0673 µM
Kd (HLA-A*30:01): ≥ 21.1 µM
Kd (HLA-A*32:01): 9.75 µM
Kd (HLA-A*30:02; [3]): 1.91 µM

AACRAAGL
Kd (HLA-A*02:01 [1]; source organism: Hepatitis C virus (isolate 1)): ≥ 50 µM

LPLPWAAGA
Kd (HLA-B*51:01; source organism: Dengue virus 4 Philippines/H241/1956): 1.42 µM

IPDVIELAY
Kd (HLA-A*26:01; [4]): ≥ 38.3 µM
Kd (HLA-A*01:01; [4]): 5.51 µM
Kd (HLA-A*29:02; [4]): 3.15 µM
Kd (HLA-A*23:01; [4]): 18.6 µM
Kd (HLA-A*30:02; [4]): 2.76 µM
Kd (HLA-A*24:02; [4]): ≥ 33.5 µM

VEPWLRGNQF
Kd (HLA-B*40:01): 3.78 µM
Kd (HLA-B*44:02): 0.073 µM

NEAKITDIM
Kd (HLA-B*40:01): 0.0831 µM
Kd (HLA-B*44:03): 4.13 µM

YLRPYMHGY
Kd (HLA-B*58:01): 12 µM
Kd (HLA-B*57:01): 5.46 µM

VPLLALGCY
Kd (HLA-B*51:01; source organism: Dengue virus 1 Brazil/97-11/1997): 14.9 µM

WPISKMDIGV
Kd (HLA-B*51:01; source organism: Dengue virus 1 Singapore/S275/1990): 10.7 µM

LLMDCSGSI
Kd (HLA-A*02:01 [2]): 0.0013 µM

IDETCEHEY
Kd (HLA-A*26:01; [5]): ≥ 32 µM
Kd (HLA-A*01:01; [5]): 11 µM
Kd (HLA-A*29:02; [5]): 2.85 µM
Kd (HLA-A*23:01; [5]): ≥ 77.8 µM
Kd (HLA-A*30:02; [5]): 0.162 µM
Kd (HLA-A*24:02; [5]): ≥ 77.6 µM

ASLGPLRETY
Kd (HLA-A*26:01; [5]): ≥ 81.5 µM
Kd (HLA-A*01:01; [5]): ≥ 114 µM
Kd (HLA-A*29:02; [5]): 0.557 µM
Kd (HLA-A*23:01; [5]): ≥ 70 µM
Kd (HLA-A*30:02; [5]): 0.154 µM
Kd (HLA-A*24:02; [5]): ≥ 70.3 µM

AYSFLPGVY
Kd (HLA-A*26:01; [5]): 6.39 µM
Kd (HLA-A*01:01; [5]): 6.52 µM
Kd (HLA-A*29:02; [5]): 0.00452 µM
Kd (HLA-A*23:01; [5]): 7.4 µM
Kd (HLA-A*30:02; [5]): 0.000267 µM
Kd (HLA-A*24:02; [5]): 0.0308 µM

LYLYALIYF
Kd (HLA-A*26:01; [5]): 12.6 µM
Kd (HLA-A*01:01; [5]): 5.16 µM
Kd (HLA-A*29:02; [5]): 0.000143 µM
Kd (HLA-A*23:01; [5]): 7.85e-05 µM
Kd (HLA-A*30:02; [5]): ≥ 81.1 µM
Kd (HLA-A*24:02; [5]): 0.00101 µM

LPETLETLLL
Kd (HLA-B*53:01): 0.0376 µM
Kd (HLA-B*51:01; source organism: Dengue virus 2 Jamaica/1409/1983): 11 µM

ELTLTNTSI
Kd (HLA-A*02:01 [1]; source organism: Lassa virus Josiah): 12.5 µM

KCWLVTNGSY
Kd (HLA-A*26:01; [6]): ≥ 69.7 µM
Kd (HLA-A*01:01; [6]): 17.3 µM
Kd (HLA-A*29:02; [6]): 0.937 µM
Kd (HLA-A*23:01; [6]): ≥ 70 µM
Kd (HLA-A*30:02; [6]): 0.0274 µM
Kd (HLA-A*24:02; [6]): ≥ 70.3 µM
